Assay results as given in publication PMC4503747, “The Gcn2 Regulator Yih1 Interacts with the Cyclin Dependent Kinase Cdc28 and Promotes Cell Cycle Progression through G2/M in Budding Yeast” (PLoS ONE, 2015).

Molecular target: T1, GST-Yih1*H2 (E87A and D90A in helix H2 of the RWD domain) (S. cerevisiae, UniProt P25637 1-258, E87A | D90A)
T1 construct: Yih1, S. cerevisiae, with alanine substitutions of Glu-87 and Asp-90;; source: S. cerevisiae yih1Δ strain MSY-Y2, galactose-inducible promoter, in whole cell extract
T1 sequence (looked up): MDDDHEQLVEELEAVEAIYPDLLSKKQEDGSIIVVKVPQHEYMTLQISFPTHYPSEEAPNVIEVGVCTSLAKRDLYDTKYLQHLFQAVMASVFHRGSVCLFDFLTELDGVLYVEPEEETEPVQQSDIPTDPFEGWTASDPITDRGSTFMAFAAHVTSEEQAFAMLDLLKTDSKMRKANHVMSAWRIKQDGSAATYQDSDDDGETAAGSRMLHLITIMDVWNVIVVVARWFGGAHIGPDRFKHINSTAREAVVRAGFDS
Test: pull-down; in vivo GST pull-down: GST fusions overexpressed in yeast from a galactose-inducible promoter (yih1Δ strains; gcn1Δ strain H2556 for the fragments; also cells arrested in G1 with α-factor and released), WCE (1-2 mg) on glutathione beads, immunoblot for endogenous proteins
Settings: partners not purified

B1: Cdc28 (endogenous, yeast whole cell extract) (natural protein)
chain: not shown
notes: Cdc28, cyclin-dependent kinase of S. cerevisiae, endogenous; In the extract Cdc28 may be in complexes with cyclins and other regulators; also called endogenous Cdc28; native Cdc28; source: endogenous, S. cerevisiae whole cell extract
fold increase of co-precipitated Cdc28 against wild type GST-Yih1: ~5 fold
